Test results taken from article PMC3347997, “Identification of basepairs within Tn5 termini that are critical sfor H-NS binding to the transpososome and regulation of Tn5 transposition”.

T1: H-NS (Escherichia coli, UniProt P0ACF8 1-137)
T1 sequence: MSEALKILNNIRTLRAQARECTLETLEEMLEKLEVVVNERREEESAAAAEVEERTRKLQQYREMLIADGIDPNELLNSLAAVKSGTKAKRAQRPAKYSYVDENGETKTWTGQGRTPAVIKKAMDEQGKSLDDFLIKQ

B1: OE 53-bp transposon end (dsDNA)
DNA 1: CCCTGCAGGTCGACTGACTCTTATACACAAGTTGAGTGAGTGAGCATGCA
DNA 2: ACATGCATGCTCACTCACTCAACTTGTGTATAAGAGTCAGTCGACCTGCAGGG

Tests used:
[1] = target: H-NS;Tn5 transposase (Escherichia coli;Tn5) (UniProt P0ACF8+Q46731); experiment: EMSA; settings: 2 nM 32P-DNA, 200 nM transposase (400 nM for ME 8/9), H-NS normally 23-849 nM added simultaneously, no divalent metal, 30 min 37 C, 5% native PAGE; buffer …
H-NS = target: T1, H-NS; experiment: EMSA; no appreciable H-NS binding to OE DNA not associated with transposase; no divalent metal; 2 nM 32P-DNA, 200 nM transposase (400 nM for ME 8/9), H-NS normally 23-849 nM added simultaneously, no divalent metal, 30 min 37 C, 5% native PAGE; buffer, salt and pH not given (cited); settings: protein: recombinant; chain copies: 2; label: 5' 32P; as printed: 3 nt 5' overhang on strand 2; described as 53 bp duplex; two copies per transpososome

H-NS;Tn5 transposase (Escherichia coli;Tn5), sequence (Q46731 whole entry, chain 2 of 2, one chain of several): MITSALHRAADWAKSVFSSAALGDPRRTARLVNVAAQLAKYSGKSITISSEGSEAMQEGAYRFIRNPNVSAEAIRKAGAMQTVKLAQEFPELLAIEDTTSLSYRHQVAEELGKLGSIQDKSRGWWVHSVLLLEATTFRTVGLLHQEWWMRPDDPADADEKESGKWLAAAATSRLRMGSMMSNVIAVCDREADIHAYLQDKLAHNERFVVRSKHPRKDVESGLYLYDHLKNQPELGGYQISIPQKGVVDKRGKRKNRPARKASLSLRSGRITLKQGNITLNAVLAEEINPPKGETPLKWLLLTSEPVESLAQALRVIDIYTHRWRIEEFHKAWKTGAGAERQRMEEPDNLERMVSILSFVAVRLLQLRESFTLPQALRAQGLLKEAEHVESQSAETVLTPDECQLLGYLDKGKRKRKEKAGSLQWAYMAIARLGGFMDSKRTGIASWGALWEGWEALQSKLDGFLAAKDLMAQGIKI

| Molecule | Kd [1] [nM] | binding result (H-NS) |
| --- | --- | --- |
| CCCTGCAGGTCGACTGACTCTTATACACAAGTTGAGTGAGTGAGCATGCA / ACATGCATGCTCACTCACTCAACTTGTGTATAAGAGTCAGTCGACCTGCAGGG [OE 53-bp transposon end] | 232 |  |
| CCCTGCAGGTCGACTGTCTCTTATACACATCTTGAGTGAGTGAGCATGCA / ACATGCATGCTCACTCACTCAAGATGTGTATAAGAGACAGTCGACCTGCAGGG [WT ME 53-bp transposon end] | 51 |  |
| B1 |  | no binding |
